Results reported in article PMC7549315.

Tests used:
[1] = target: SAF-A^CtermΔ–GFP; assay: co-IP
[2] = target: SAF-A^RGG1-7Δ–GFP (UniProt Q00839); assay: co-IP
Sequence of SAF-A^RGG1-7Δ–GFP (Q00839 whole entry, stated change not applied): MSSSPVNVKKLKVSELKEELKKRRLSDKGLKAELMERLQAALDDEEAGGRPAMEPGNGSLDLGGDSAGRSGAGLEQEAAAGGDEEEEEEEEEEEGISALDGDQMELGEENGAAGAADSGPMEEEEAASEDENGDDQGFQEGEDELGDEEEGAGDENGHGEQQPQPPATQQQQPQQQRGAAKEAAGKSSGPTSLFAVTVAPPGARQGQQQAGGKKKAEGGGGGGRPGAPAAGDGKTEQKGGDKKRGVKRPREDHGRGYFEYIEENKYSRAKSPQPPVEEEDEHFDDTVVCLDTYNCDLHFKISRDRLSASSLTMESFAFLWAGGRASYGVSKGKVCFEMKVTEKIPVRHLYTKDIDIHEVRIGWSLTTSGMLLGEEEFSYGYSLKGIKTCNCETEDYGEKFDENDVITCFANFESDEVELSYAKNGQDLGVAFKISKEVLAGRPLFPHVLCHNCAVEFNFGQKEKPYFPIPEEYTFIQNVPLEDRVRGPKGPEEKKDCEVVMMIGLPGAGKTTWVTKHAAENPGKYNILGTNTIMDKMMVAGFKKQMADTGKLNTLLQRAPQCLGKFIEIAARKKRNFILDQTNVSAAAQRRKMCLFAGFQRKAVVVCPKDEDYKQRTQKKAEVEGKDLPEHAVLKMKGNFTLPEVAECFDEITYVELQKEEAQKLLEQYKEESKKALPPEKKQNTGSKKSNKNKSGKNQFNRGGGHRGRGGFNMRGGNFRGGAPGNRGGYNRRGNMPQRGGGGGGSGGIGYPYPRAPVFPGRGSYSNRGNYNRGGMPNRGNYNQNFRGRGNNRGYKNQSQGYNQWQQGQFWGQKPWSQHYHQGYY

Sequence of SAF-A^CtermΔ–GFP (Q00839 2-825, stated change not applied): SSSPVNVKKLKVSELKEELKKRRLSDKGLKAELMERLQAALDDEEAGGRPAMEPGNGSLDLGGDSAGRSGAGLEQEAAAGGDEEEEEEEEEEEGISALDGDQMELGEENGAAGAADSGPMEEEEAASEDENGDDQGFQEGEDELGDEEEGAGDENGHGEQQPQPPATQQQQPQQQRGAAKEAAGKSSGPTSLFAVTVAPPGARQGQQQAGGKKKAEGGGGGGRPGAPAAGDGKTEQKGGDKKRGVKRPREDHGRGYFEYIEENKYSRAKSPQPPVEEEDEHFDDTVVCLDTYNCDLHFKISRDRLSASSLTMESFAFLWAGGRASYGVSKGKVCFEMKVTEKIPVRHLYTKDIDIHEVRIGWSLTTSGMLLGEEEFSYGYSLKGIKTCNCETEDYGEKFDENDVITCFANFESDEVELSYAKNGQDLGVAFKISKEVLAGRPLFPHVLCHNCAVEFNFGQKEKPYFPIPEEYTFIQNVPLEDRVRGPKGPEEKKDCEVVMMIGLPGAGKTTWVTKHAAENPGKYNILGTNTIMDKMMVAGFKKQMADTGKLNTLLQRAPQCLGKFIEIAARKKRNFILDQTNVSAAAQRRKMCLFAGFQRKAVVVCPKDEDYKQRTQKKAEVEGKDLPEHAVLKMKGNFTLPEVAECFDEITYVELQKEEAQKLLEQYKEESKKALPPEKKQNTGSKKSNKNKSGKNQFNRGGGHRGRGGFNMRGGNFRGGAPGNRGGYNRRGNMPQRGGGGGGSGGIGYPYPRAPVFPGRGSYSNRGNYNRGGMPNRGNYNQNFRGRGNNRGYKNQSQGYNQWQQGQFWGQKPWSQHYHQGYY

For “histone H3 (from UniProt P68431 1-136) (natural protein)”, the fold reduction in histone H3 interaction relative to SAF-A^wt–GFP [1] was greater than 7 fold and the fold reduction in histone H3 interaction relative to SAF-A^wt–GFP [2] was greater than 7 fold.
